Reference: patent publication US20100272685A1

Key:
[1] = target: AAV2/5 vector particle (AAV5 capsid proteins VP1, VP2, VP3) (adeno-associated virus 5); test: cell-based or functional assay
[2] = target: AAV2/po1 hybrid vector particle (AAVpo1 capsid of VP1, VP2, VP3) (porcine adeno-associated virus AAVpo1); test: cell-based or functional assay

**Q.** For “Pooled Human Ig (Immune Globulin Intravenous (Human) Carimune NF)”, which concentration of the pooled Human Ig required to neutralise >50% of AAV-LacZ particles [1] is on record?
**A.** 7.5e-05 mg/mL

**Q.** And the concentration of the pooled Human Ig required to neutralise >50% of AAV-LacZ particles [2]?
**A.** > 12 mg/mL
